Assays:
[1] = Aminoacylation reaction, simplified Lloyd's method, inorganic phosphate detected with Biomol green; format: biochemical; set-up: key: ***: the aminoacylation reaction was detected by a microplate reader in the reaction at enzyme concentrations of 50 nM; **: 500 nM; *: 5 μM; the activity is high in the order of *** > ** > * > —; conditions: 3-iodotyrosine 1 mM, 37° C. for 4 min
Procedure: (§1) In the first method, Lloyd's method (Nucleic Acids Research, 23:2886-2892, 1995) where inorganic phosphate produced by pyrophosphatase-drived hydrolysis of pyrophosphate which was one of the reaction products of the aminoacylation reactions was quantified was simplified, and the inorganic phosphate was detected using Biomol green (Funakoshi) to carry out the measurement of the aminoacylation reaction.
(§2) Amino acid concentrations were 200 μM and 1 mM for tyrosine and 3-iodotyrosine, respectively.
The method where the aminoacylation reaction is measured by quantifying inorganic phosphate produced by pyrophosphatase-drived hydrolysis of pyrophosphate which is one of reaction products of the aminoacylation has been described by Lloyd et al. (Nucleic Acids Research, 23:2886-2892, 1995). In one method of the invention, this method was simplified and the aminoacylation reaction was measured by the detection of inorganic phosphate using Biomol green (Funakoshi). Each enzyme obtained was incubated with 0.05 ml of the buffer B containing 1 mM ATP (Seikagaku Corporation), 30 μM purified crude tyrosyl-tRNA, and 100 μM tyrosine or 0.5 mM 3-iodotyrosine at 37° C. for one hour. To stop the reaction, 0.1 ml of Bio mol green was added. Absorbance of its supernatant was measured at 630 nm.

[2] = as above; format: biochemical; set-up: key: ***: the aminoacylation reaction was detected by a microplate reader in the reaction at enzyme concentrations of 50 nM; **: 500 nM; *: 5 μM; the activity is high in the order of *** > ** > * > —; conditions: tyrosine 200 μM, 37° C. for 4 min
Procedure: as §1, §2
The method where the aminoacylation reaction is measured by quantifying inorganic phosphate produced by pyrophosphatase-drived hydrolysis of pyrophosphate which is one of reaction products of the aminoacylation has been described by Lloyd et al. (Nucleic Acids Research, 23:2886-2892, 1995). In one method of the invention, this method was simplified and the aminoacylation reaction was measured by the detection of inorganic phosphate using Biomol green (Funakoshi). […] To stop the reaction, 0.1 ml of Bio mol green was added. Absorbance of its supernatant was measured at 630 nm.

B1: 37L: E. coli TyrRS variant: position 37 Leucine, position 195 Glutamine (protein, UniProt P0AGJ9 2-424, looked up, variant Y37L)
Tyrosine--tRNA ligase: ASSNLIKQLQERGLVAQVTDEEALAERLAQGPIALLCGFDPTADSLHLGHLVPLLCLKRFQQAGHKPVALVGGATGLIGDPSFKAAERKLNTEETVQEWVDKIRKQVAPFLDFDCGENSAIAANNYDWFGNMNVLTFLRDIGKHFSVNQMINKEAVKQRLNREDQGISFTEFSYNLLQGYDFACLNKQYGVVLQIGGSDQWGNITSGIDLTRRLHQNQVFGLTVPLITKADGTKFGKTEGGAVWLDPKKTSPYKFYQFWINTADADVYRFLKFFTFMSIEEINALEEEDKNSGKAPRAQYVLAEQVTRLVHGEEGLQAAKRITECLFSGSLSALSEADFEQLAQDGVPMVEMEKGADLMQALVDSELQPSRGQARKTIASNAITINGEKQSDPEYFFKEEDRLFGRFTLLRRGKKNYCLICWK
Aminoacylation activity, 3-iodotyrosine ([1]; Table 2): *** | Aminoacylation activity, Tyrosine ([2]; Table 2): ***

B2: 195N: E. coli TyrRS variant: position 37 Tyrosine, position 195 Asparagine (protein, UniProt P0AGJ9 2-424, looked up, variant Q195N)
Tyrosine--tRNA ligase: ASSNLIKQLQERGLVAQVTDEEALAERLAQGPIALYCGFDPTADSLHLGHLVPLLCLKRFQQAGHKPVALVGGATGLIGDPSFKAAERKLNTEETVQEWVDKIRKQVAPFLDFDCGENSAIAANNYDWFGNMNVLTFLRDIGKHFSVNQMINKEAVKQRLNREDQGISFTEFSYNLLQGYDFACLNKQYGVVLNIGGSDQWGNITSGIDLTRRLHQNQVFGLTVPLITKADGTKFGKTEGGAVWLDPKKTSPYKFYQFWINTADADVYRFLKFFTFMSIEEINALEEEDKNSGKAPRAQYVLAEQVTRLVHGEEGLQAAKRITECLFSGSLSALSEADFEQLAQDGVPMVEMEKGADLMQALVDSELQPSRGQARKTIASNAITINGEKQSDPEYFFKEEDRLFGRFTLLRRGKKNYCLICWK
Aminoacylation activity, 3-iodotyrosine ([1]; Table 2): * | Aminoacylation activity, Tyrosine ([2]; Table 2): ***

B3: 195C: E. coli TyrRS variant: position 37 Tyrosine, position 195 Cysteine (protein, UniProt P0AGJ9 2-424, looked up, variant Q195C)
Tyrosine--tRNA ligase: ASSNLIKQLQERGLVAQVTDEEALAERLAQGPIALYCGFDPTADSLHLGHLVPLLCLKRFQQAGHKPVALVGGATGLIGDPSFKAAERKLNTEETVQEWVDKIRKQVAPFLDFDCGENSAIAANNYDWFGNMNVLTFLRDIGKHFSVNQMINKEAVKQRLNREDQGISFTEFSYNLLQGYDFACLNKQYGVVLCIGGSDQWGNITSGIDLTRRLHQNQVFGLTVPLITKADGTKFGKTEGGAVWLDPKKTSPYKFYQFWINTADADVYRFLKFFTFMSIEEINALEEEDKNSGKAPRAQYVLAEQVTRLVHGEEGLQAAKRITECLFSGSLSALSEADFEQLAQDGVPMVEMEKGADLMQALVDSELQPSRGQARKTIASNAITINGEKQSDPEYFFKEEDRLFGRFTLLRRGKKNYCLICWK
Aminoacylation activity, 3-iodotyrosine ([1]; Table 2): * | Aminoacylation activity, Tyrosine ([2]; Table 2): ***

B4: 195S: E. coli TyrRS variant: position 37 Tyrosine, position 195 Serine (protein, UniProt P0AGJ9 2-424, looked up, variant Q195S)
Tyrosine--tRNA ligase: ASSNLIKQLQERGLVAQVTDEEALAERLAQGPIALYCGFDPTADSLHLGHLVPLLCLKRFQQAGHKPVALVGGATGLIGDPSFKAAERKLNTEETVQEWVDKIRKQVAPFLDFDCGENSAIAANNYDWFGNMNVLTFLRDIGKHFSVNQMINKEAVKQRLNREDQGISFTEFSYNLLQGYDFACLNKQYGVVLSIGGSDQWGNITSGIDLTRRLHQNQVFGLTVPLITKADGTKFGKTEGGAVWLDPKKTSPYKFYQFWINTADADVYRFLKFFTFMSIEEINALEEEDKNSGKAPRAQYVLAEQVTRLVHGEEGLQAAKRITECLFSGSLSALSEADFEQLAQDGVPMVEMEKGADLMQALVDSELQPSRGQARKTIASNAITINGEKQSDPEYFFKEEDRLFGRFTLLRRGKKNYCLICWK
Aminoacylation activity, 3-iodotyrosine ([1]; Table 2): * | Aminoacylation activity, Tyrosine ([2]; Table 2): ***

B5: IS: E. coli TyrRS double variant: position 37 Isoleucine, position 195 Serine (protein, UniProt P0AGJ9 2-424, looked up, variant Y37I Q195S)
Tyrosine--tRNA ligase: ASSNLIKQLQERGLVAQVTDEEALAERLAQGPIALICGFDPTADSLHLGHLVPLLCLKRFQQAGHKPVALVGGATGLIGDPSFKAAERKLNTEETVQEWVDKIRKQVAPFLDFDCGENSAIAANNYDWFGNMNVLTFLRDIGKHFSVNQMINKEAVKQRLNREDQGISFTEFSYNLLQGYDFACLNKQYGVVLSIGGSDQWGNITSGIDLTRRLHQNQVFGLTVPLITKADGTKFGKTEGGAVWLDPKKTSPYKFYQFWINTADADVYRFLKFFTFMSIEEINALEEEDKNSGKAPRAQYVLAEQVTRLVHGEEGLQAAKRITECLFSGSLSALSEADFEQLAQDGVPMVEMEKGADLMQALVDSELQPSRGQARKTIASNAITINGEKQSDPEYFFKEEDRLFGRFTLLRRGKKNYCLICWK
Aminoacylation activity, 3-iodotyrosine ([1]; Table 3): — | Aminoacylation activity, Tyrosine ([2]; Table 3): —

B6: 195A: E. coli TyrRS variant: position 37 Tyrosine, position 195 Alanine (protein, UniProt P0AGJ9 2-424, looked up, variant Q195A)
Tyrosine--tRNA ligase: ASSNLIKQLQERGLVAQVTDEEALAERLAQGPIALYCGFDPTADSLHLGHLVPLLCLKRFQQAGHKPVALVGGATGLIGDPSFKAAERKLNTEETVQEWVDKIRKQVAPFLDFDCGENSAIAANNYDWFGNMNVLTFLRDIGKHFSVNQMINKEAVKQRLNREDQGISFTEFSYNLLQGYDFACLNKQYGVVLAIGGSDQWGNITSGIDLTRRLHQNQVFGLTVPLITKADGTKFGKTEGGAVWLDPKKTSPYKFYQFWINTADADVYRFLKFFTFMSIEEINALEEEDKNSGKAPRAQYVLAEQVTRLVHGEEGLQAAKRITECLFSGSLSALSEADFEQLAQDGVPMVEMEKGADLMQALVDSELQPSRGQARKTIASNAITINGEKQSDPEYFFKEEDRLFGRFTLLRRGKKNYCLICWK
Aminoacylation activity, 3-iodotyrosine ([1]; Table 2): * | Aminoacylation activity, Tyrosine ([2]; Table 2): ***

B7: 37I: E. coli TyrRS variant: position 37 Isoleucine, position 195 Glutamine (protein, UniProt P0AGJ9 2-424, looked up, variant Y37I)
Tyrosine--tRNA ligase: ASSNLIKQLQERGLVAQVTDEEALAERLAQGPIALICGFDPTADSLHLGHLVPLLCLKRFQQAGHKPVALVGGATGLIGDPSFKAAERKLNTEETVQEWVDKIRKQVAPFLDFDCGENSAIAANNYDWFGNMNVLTFLRDIGKHFSVNQMINKEAVKQRLNREDQGISFTEFSYNLLQGYDFACLNKQYGVVLQIGGSDQWGNITSGIDLTRRLHQNQVFGLTVPLITKADGTKFGKTEGGAVWLDPKKTSPYKFYQFWINTADADVYRFLKFFTFMSIEEINALEEEDKNSGKAPRAQYVLAEQVTRLVHGEEGLQAAKRITECLFSGSLSALSEADFEQLAQDGVPMVEMEKGADLMQALVDSELQPSRGQARKTIASNAITINGEKQSDPEYFFKEEDRLFGRFTLLRRGKKNYCLICWK
Aminoacylation activity, 3-iodotyrosine ([1]; Table 2): *** | Aminoacylation activity, Tyrosine ([2]; Table 2): **

— patent US7393670B2, “Tyrosyl-tRNA synthetase variants” (Japan Science and Technology Agency, priority 2001, dated 2008)
